From the supplement of paper PMC10724198
± gives the standard deviation of the averaged measurements.

Legend:
Saccharomyces cerevisiae [1] = assay: protein stability index of tFT-peptide fusion (C-terminal peptide) (PSI (0-1 scale)); higher = more stable (slower turnover); conditions: genetic background: wild type; temperature: 30 C
Saccharomyces cerevisiae [2] = assay: as above
Protocol: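 MPS profiling in S. cerevisiae of the tFT-X12 degron library: putative degron peptides plus stable controls, 12 aa, fused to the C-terminus of a sfGFP-mCherry timer. Cells are FACS-sorted into 8 mCherry/sfGFP bins and deep-sequenced. PSI runs from 0 (unstable) to 1 (stable). Backgrounds are wild type, das1Δ and doa10Δ at 30 °C, and wild type, das1Δ, cdc34-1 and cdc53-1 at 37 °C; 2-3 technical replicates each.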

[3] = genetic background: cdc34-1, temperature: 37 C
[4] = genetic background: cdc53-1, temperature: 37 C
[5] = genetic background: das1 deletion, temperature: 30 C
[6] = genetic background: das1 deletion, temperature: 37 C
[7] = genetic background: doa10 deletion, temperature: 30 C
[8] = genetic background: wild type, temperature: 30 C
[9] = genetic background: wild type, temperature: 37 C
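Note: PSI is a weighted mean of sequencing reads over stability bins, variants kept only with over 10 reads, mCherry proximal and sfGFP distal, peptide attached via GGGS linker.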

Sequence	protein stability index (Saccharomyces cerevisiae [1])	protein stability index (Saccharomyces cerevisiae [2]; [3])	protein stability index (Saccharomyces cerevisiae [2]; [4])	protein stability index (Saccharomyces cerevisiae [2]; [5])	protein stability index (Saccharomyces cerevisiae [2]; [6])	protein stability index (Saccharomyces cerevisiae [2]; [7])	protein stability index (Saccharomyces cerevisiae [2]; [8])	protein stability index (Saccharomyces cerevisiae [2]; [9])
WLSFAIECGMVW	0.357 ± 0.045	0.1938 ± 0.0014	0.28 ± 0.058	0.252 ± 0.023	0.3286 ± 0.0012	0.2135 ± 0.0014	0.249 ± 0.026	0.287 ± 0.032
WLTCSLVFNVFW	0.438 ± 0.0061	0.429 ± 0.025	0.455 ± 0.007	0.406 ± 0.014	0.482 ± 0.0057	0.448 ± 0.032	0.389 ± 0.026	0.471 ± 0.015
WQSFRDKLIKGN	0.264 ± 0.071	0.646 ± 0.044	0.716 ± 0.026	0.643 ± 0.028	0.754 ± 0.041	0.188 ± 0.034	0.204 ± 0.036	0.3754 ± 0.0012
WRCECELASACA	0.431 ± 0.013	0.458 ± 0.015	0.473 ± 0.027	0.347 ± 0.037	0.508 ± 0.0082	0.31 ± 0.0062	0.361 ± 0.024	0.486 ± 0.0079
WRGALHPTPVAA	0.339 ± 0.0086	0.285 ± 0.018	0.282 ± 0.0046	0.249 ± 0.035	0.419 ± 0.0075	0.198 ± 0.0084	0.253 ± 0.029	0.4 ± 0.017
WSNICFWCGVWS	0.458 ± 0.057	0.685 ± 0.027	0.826 ± 0.011	0.673 ± 0.038	0.815 ± 0.033	0.356 ± 0.0059	0.39 ± 0.024	0.6615 ± 0.0049
WSWVFVVLRFGR	0.527 ± 0.048	0.485 ± 0.035	0.5367 ± 0.0019	0.405 ± 0.027	0.574 ± 0.017	0.412 ± 0.025	0.394 ± 0.024	0.562 ± 0.014
WVLFRLPYQFFS	0.436 ± 0.0098	0.668 ± 0.048	0.707 ± 0.021	0.57 ± 0.038	0.737 ± 0.026	0.368 ± 0.0073	0.393 ± 0.022	0.633 ± 0.0017
WWDCAVWVRCGG	0.471 ± 0.015	0.477 ± 0.026	0.471 ± 0.0077	0.382 ± 0.024	0.5379 ± 0.0022	0.407 ± 0.013	0.382 ± 0.019	0.516 ± 0.012
YCAMVAVGVVGG	0.509 ± 0.03	0.468 ± 0.037	0.506 ± 0.025	0.329 ± 0.021	0.503 ± 0.0096	0.306 ± 0.016	0.334 ± 0.018	0.493 ± 0.012
YCLSCLAKASLM	0.28811 ± 0.00011	0.495 ± 0.036	0.606 ± 0.0019	0.524 ± 0.021	0.5686 ± 0.0039	0.164 ± 0.0029	0.19 ± 0.0066	0.38 ± 0.011
YFCVELSVFGFF	0.4 ± 0.036	0.416 ± 0.018	0.546 ± 0.077	0.37 ± 0.046	0.48 ± 0.018	0.324 ± 0.02	0.358 ± 0.023	0.476 ± 0.033
YFFFLFFLLPPF	0.374 ± 0.029	0.453 ± 0.045	0.477 ± 0.025	0.408 ± 0.041	0.505 ± 0.0069	0.416 ± 0.007	0.356 ± 0.034	0.498 ± 0.0073
YGHLPLLVLFCV	0.366 ± 0.049	0.459 ± 0.013	0.509 ± 0.037	0.352 ± 0.035	0.541 ± 0.013	0.211 ± 0.0055	0.237 ± 0.023	0.399 ± 0.022
YHRKAILMCTFS	0.443 ± 0.078	0.506 ± 0.044	0.55 ± 0.011	0.443 ± 0.02	0.5702 ± 0.0011	0.3072 ± 0.00055	0.299 ± 0.017	0.461 ± 0.021
YIFLPIALVFFP	0.363 ± 0.083	0.435 ± 0.021	0.536 ± 0.014	0.304 ± 0.037	0.543 ± 0.022	0.333 ± 0.02	0.319 ± 0.014	0.488 ± 0.015
YLFFHMVVLVVV	0.157 ± 0.018	0.0358 ± 0.0027	0.0745 ± 0.0059	0.118 ± 0.043	0.182 ± 0.0041	0.0943 ± 0.019	0.105 ± 0.048	0.149 ± 0.019
YLGSLQVPVHLF	0.352 ± 0.011	0.676 ± 0.024	0.725 ± 0.062	0.639 ± 0.022	0.756 ± 0.011	0.226 ± 0.013	0.255 ± 0.019	0.455 ± 0.011
YMPKHKIQKLMQ	0.491 ± 0.067	0.701 ± 0.02	0.728 ± 0.032	0.639 ± 0.023	0.7635 ± 0.0046	0.425 ± 0.012	0.46 ± 0.023	0.607 ± 0.018
YMVSLSFTLVRS	0.481 ± 0.041	0.382 ± 0.038	0.454 ± 0.054	0.32 ± 0.022	0.474 ± 0.033	0.297 ± 0.024	0.333 ± 0.013	0.4552 ± 0.0036
YSGRYRTLVRCW	0.33 ± 0.015	0.291 ± 0.011	0.366 ± 0.039	0.265 ± 0.037	0.4426 ± 0.0032	0.199 ± 0.0059	0.236 ± 0.033	0.384 ± 0.02
YVCVVSVLLGLL	0.31 ± 0.031	0.25 ± 0.017	0.319 ± 0.029	0.24 ± 0.026	0.441 ± 0.0082	0.19367 ± 8.4e-05	0.226 ± 0.015	0.3823 ± 0.0025
